{
  "source": "paper PMC3005623",
  "about": "(Journal of molecular biology, 2010)",
  "biological_target": "the molecule itself",
  "experiment": "negative-stain electron microscopy",
  "data": [
    {"protein": "Cdc3–Cdc11–(His)6–Cdc12-Cdc10(H24A R25A K28A K29A) complex (complex, S. cerevisiae) chain 1: MSLKEEQVSIKQDPEQEERQHDQFNDVQIKQESQDHDGVDSQYTNGTQNDDSERFEAAESDVKVEPGLGMGITSSQSEKGQVLPDQPEIKFIRRQINGYVGFANLPKQWHRRSIKNGFSFNLLCVGPDGIGKTTLMKTLFNNDDIEANLVKDYEEELANDQEEEEGQGEGHENQSQEQRHKVKIKSYESVIEENGVKLNLNVIDTEGFGDFLNNDQKSWDPIIKEIDSRFDQYLDAENKINRHSINDKRIHACLYFIEPTGHYLKPLDLKFMQSVYEKCNLIPVIAKSDILTDEEILSFKKTIMNQLIQSNIELFKPPIYSNDDAENSHLSERLFSSLPYAVIGSNDIVENYSGNQVRGRSYPWGVIEVDNDNHSDFNLLKNLLIKQFMEELKERTSKILYENYRSSKLAKLGIKQDNSVFKEFDPISKQQEEKTLHEAKLAKLEIEMKTVFQQKVSEKEKKLQKSETELFARHKEMKEKLTKQLKALEDKKKQLELSINSASPNVNHSPVPTKKKGFLR chain 2: MSGIIDASSALRKRKHLKRGITFTVMIVGQSGSGRSTFINTLCGQQVVDTSTTILLPTDTSTEIDLQLREETVELEDDEGVKIQLNIIDTPGFGDSLDNSPSFEIISDYIRHQYDEILLEESRVRRNPRFKDGRVHCCLYLINPTGHGLKEIDVEFIRQLGSLVNIIPVISKSDSLTRDELKLNKKLIMEDIDRWNLPIYNFPFDEDEISDEDYETNMYLRTLLPFAIIGSNEVYEMGGDVGTIRGRKYPWGILDVEDSSISDFVILRNALLISHLHDLKNYTHEILYERYRTEALSGESVAAESIRPNLTKLNGSSSSSTTTRRNTNPFKQSNNINNDVLNPASDMHGQSTGENNETYMTREEQIRLEEERLKAFEERVQQELLLKRQELLQREKELREIEARLEKEAKIKQEE chain 3: MSAATATAAPVPPPVGISNLPNQRYKIVNEEGGTFTVMLCGESGLGKTTFINTLFQTVLKRADGQQHRQEPIRKTVEIDITRALLEEKHFELRVNVIDTPGFGDNVNNNKAWQPLVDFIDDQHDSYMRQEQQPYRTKKFDLRVHAVLYFIRPTGHGLKPIDIETMKRLSTRANLIPVIAKADTLTAQELQQFKSRIRQVIEAQEIRIFTPPLDADSKEDAKSGSNPDSAAVEHARQLIEAMPFAIVGSEKKFDNGQGTQVVARKYPWGLVEIENDSHCDFRKLRALLLRTYLLDLISTTQEMHYETYRRLRLEGHENTGEGNEDFTLPAIAPARKLSHNPRYKEEENALKKYFTDQVKAEEQRFRQWEQNIVNERIRLNGDLEEIQGKVKKLEEQVKSLQVKKSHLK chain 4: MDPLSSVQPASYVGFDTITNQIEAALLAAGFQFNIMVVGQSGLGKSTLINTLFASHLIDSATGDDISALPVTKTTEMKISTHTLVEDRVRLNINVIDTPGFGDFIDNSKAWEPIVKYIKEQHSQYLRKELTAQRERFITDTRVHAILYFLQPNGKELSRLDVEALKRLTEIANVIPVIGKSDTLTLDERTEFRELIQNEFEKYNFKIYPYDSEELTDEELELNRSVRSIIPFAVVGSENEIEINGETFRGRKTRWSAINVEDINQCDFVYLREFLIRTHLQDLIETTSYIHYEGFRARQLIALKENANSRSSAHMSSNAIQR", "values": [
      {"measurement": "percent of particles that are heptamers", "value": 14.2, "unit": "%"}
    ]},
    {"protein": "Cdc3–Cdc11–(His)6–Cdc12-Cdc10(I22E) complex (complex, S. cerevisiae) chain 1: MSLKEEQVSIKQDPEQEERQHDQFNDVQIKQESQDHDGVDSQYTNGTQNDDSERFEAAESDVKVEPGLGMGITSSQSEKGQVLPDQPEIKFIRRQINGYVGFANLPKQWHRRSIKNGFSFNLLCVGPDGIGKTTLMKTLFNNDDIEANLVKDYEEELANDQEEEEGQGEGHENQSQEQRHKVKIKSYESVIEENGVKLNLNVIDTEGFGDFLNNDQKSWDPIIKEIDSRFDQYLDAENKINRHSINDKRIHACLYFIEPTGHYLKPLDLKFMQSVYEKCNLIPVIAKSDILTDEEILSFKKTIMNQLIQSNIELFKPPIYSNDDAENSHLSERLFSSLPYAVIGSNDIVENYSGNQVRGRSYPWGVIEVDNDNHSDFNLLKNLLIKQFMEELKERTSKILYENYRSSKLAKLGIKQDNSVFKEFDPISKQQEEKTLHEAKLAKLEIEMKTVFQQKVSEKEKKLQKSETELFARHKEMKEKLTKQLKALEDKKKQLELSINSASPNVNHSPVPTKKKGFLR chain 2: MSGIIDASSALRKRKHLKRGITFTVMIVGQSGSGRSTFINTLCGQQVVDTSTTILLPTDTSTEIDLQLREETVELEDDEGVKIQLNIIDTPGFGDSLDNSPSFEIISDYIRHQYDEILLEESRVRRNPRFKDGRVHCCLYLINPTGHGLKEIDVEFIRQLGSLVNIIPVISKSDSLTRDELKLNKKLIMEDIDRWNLPIYNFPFDEDEISDEDYETNMYLRTLLPFAIIGSNEVYEMGGDVGTIRGRKYPWGILDVEDSSISDFVILRNALLISHLHDLKNYTHEILYERYRTEALSGESVAAESIRPNLTKLNGSSSSSTTTRRNTNPFKQSNNINNDVLNPASDMHGQSTGENNETYMTREEQIRLEEERLKAFEERVQQELLLKRQELLQREKELREIEARLEKEAKIKQEE chain 3: MSAATATAAPVPPPVGISNLPNQRYKIVNEEGGTFTVMLCGESGLGKTTFINTLFQTVLKRADGQQHRQEPIRKTVEIDITRALLEEKHFELRVNVIDTPGFGDNVNNNKAWQPLVDFIDDQHDSYMRQEQQPYRTKKFDLRVHAVLYFIRPTGHGLKPIDIETMKRLSTRANLIPVIAKADTLTAQELQQFKSRIRQVIEAQEIRIFTPPLDADSKEDAKSGSNPDSAAVEHARQLIEAMPFAIVGSEKKFDNGQGTQVVARKYPWGLVEIENDSHCDFRKLRALLLRTYLLDLISTTQEMHYETYRRLRLEGHENTGEGNEDFTLPAIAPARKLSHNPRYKEEENALKKYFTDQVKAEEQRFRQWEQNIVNERIRLNGDLEEIQGKVKKLEEQVKSLQVKKSHLK chain 4: MDPLSSVQPASYVGFDTITNQEEHRLLKKGFQFNIMVVGQSGLGKSTLINTLFASHLIDSATGDDISALPVTKTTEMKISTHTLVEDRVRLNINVIDTPGFGDFIDNSKAWEPIVKYIKEQHSQYLRKELTAQRERFITDTRVHAILYFLQPNGKELSRLDVEALKRLTEIANVIPVIGKSDTLTLDERTEFRELIQNEFEKYNFKIYPYDSEELTDEELELNRSVRSIIPFAVVGSENEIEINGETFRGRKTRWSAINVEDINQCDFVYLREFLIRTHLQDLIETTSYIHYEGFRARQLIALKENANSRSSAHMSSNAIQR", "values": [
      {"measurement": "percent of particles that are heptamers", "value": 24.9, "unit": "%"}
    ]}
  ]
}
